Experiment [1] addresses T1, Human FGFR2 IIIb D1-3 (human).
T1 construct: Extracellular domains D1-3 with C-terminal tag, made in HEK293T; also called recombinant human FGFR2 IIIb; hFGFR2
T1 chain: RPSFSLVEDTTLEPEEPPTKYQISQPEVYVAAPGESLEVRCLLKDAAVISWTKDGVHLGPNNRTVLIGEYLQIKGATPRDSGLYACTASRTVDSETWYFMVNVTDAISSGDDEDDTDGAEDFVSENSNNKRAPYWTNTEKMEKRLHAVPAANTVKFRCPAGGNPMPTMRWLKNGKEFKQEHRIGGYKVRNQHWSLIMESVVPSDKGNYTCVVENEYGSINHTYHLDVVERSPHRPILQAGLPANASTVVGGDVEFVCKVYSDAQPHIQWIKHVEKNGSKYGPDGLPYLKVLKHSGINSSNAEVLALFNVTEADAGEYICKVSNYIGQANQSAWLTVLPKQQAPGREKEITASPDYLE
Briefly: SPR Biacore, method as Example 2. As to the method:
(§1) For kinetic measurements, experiments were performed in which the antibodies were immobilized to the sensor chip surface and the ability of the FGFR proteins described above listed in Table 1 to bind in free solution was determined Briefly, 50 μg/ml of anti-human Fc antibody at pH 4.75 was immobilized on a CM5 sensor chip through amine coupling at flow rate of 10 μl/minute on all four flow cells to reach 6000 RUs. […] Subsequently, 0.078-100 nM of FGFR receptors, diluted in a 2-fold series, were injected at a flow rate of 80 μl/min for 7 min over both reference and test flow cells. Dissociation of the binding was followed for 10 min using HBS-EP⁺ supplemented with 0.5 mg/ml of BSA and 10 μg/ml heparin as running buffer. After each injection cycle, the chip surface was regenerated with 10 mM glycine, pH 2.0 at 60 μl/min for 70 s.
(In SPR one partner is held on a chip, and binding of the other changes the refractive index at the surface.)

The target of experiment [2] is T1, Human FGFR2 IIIb D1-3. Briefly: SPR Biacore, method as Example 2. As to the method: as §1
Experiment [3] concerns the target T2, Mouse FGFR2 IIIb D1-3 (mouse).
T2 construct: Extracellular domains with C-terminal tag
Briefly: SPR Biacore, method as Example 2. As to the method: as §1

The target in experiment [4] is T3, Rat FGFR2 IIIb D1-3 (rat).
T3 construct: Extracellular domains with C-terminal tag
Briefly: SPR Biacore, method as Example 2. As to the method: as §1

The target of experiment [5] is T4, Cynomolgus monkey FGFR2 IIIb D1-3 (cynomolgus monkey).
T4 construct: also called Cyno FGFR2 IIIb
T4 chain: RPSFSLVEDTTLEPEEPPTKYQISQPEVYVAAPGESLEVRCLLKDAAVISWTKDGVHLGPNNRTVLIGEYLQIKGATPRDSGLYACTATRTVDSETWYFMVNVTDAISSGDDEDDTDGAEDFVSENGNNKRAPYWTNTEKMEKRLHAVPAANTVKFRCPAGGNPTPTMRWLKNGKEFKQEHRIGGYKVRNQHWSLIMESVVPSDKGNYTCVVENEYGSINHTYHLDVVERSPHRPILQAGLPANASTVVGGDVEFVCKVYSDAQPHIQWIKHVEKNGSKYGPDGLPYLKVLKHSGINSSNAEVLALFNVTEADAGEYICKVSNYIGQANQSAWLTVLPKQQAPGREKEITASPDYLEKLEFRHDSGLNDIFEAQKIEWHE
Briefly: SPR Biacore, method as Example 2. As to the method:
as §1

Experiment [6] concerns the target T5, FGFR2 D2-D3 Construct (human).
T5 construct: E. coli made, not glycosylated; also called E. Coli. derived FGFR2D2-D3 protein
T5 chain: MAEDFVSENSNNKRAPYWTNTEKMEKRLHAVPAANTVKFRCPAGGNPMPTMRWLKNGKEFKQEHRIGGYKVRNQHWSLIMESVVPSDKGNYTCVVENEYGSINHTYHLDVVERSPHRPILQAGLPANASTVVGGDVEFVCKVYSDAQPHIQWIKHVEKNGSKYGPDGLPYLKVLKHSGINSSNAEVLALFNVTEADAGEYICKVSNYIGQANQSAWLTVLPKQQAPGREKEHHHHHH
Briefly: HDx-MS, antigen incubated 30 min with antibody. As to the method: The epitope mapping experiments described in this example were performed on a Waters HDx-MS platform, which includes a LEAP autosampler, nanoACQUITY UPLC System, and Synapt G2 mass spectrometer. The studies were automated by a LEAP autosampler operated by the LeapShell software, which performed initiation of the deuterium exchange reaction, reaction time control, quench reaction, injection onto the UPLC system and digestion time control. The Leap autosampler was equipped with two temperature controlled stacks maintained at 25° C. for HDx reaction and maintained at 2° C. for storage of protein and quench solution, respectively. Triplicate control experiments were carried out on antigen at a deuterium exchange time of 25 minutes. HDX was quenched with quenching buffer (6 M urea and 1 M TCEP pH=2.5). […] Triplicate experiments were carried out on antigen-mAb complex just as the control experiments except in these experiments the antigen in incubated for 30 min with the antibody at 25° C. prior to deuterium exchange.

The target in experiment [7] is T1, Human FGFR2 IIIb D1-3. Briefly: SPR Biacore, IgG captured via anti-human Fc, soluble FGFR as analyte. As to the method: (§2) Affinity of the antibodies to FGFR2 species orthologues was determined using Biacore technology using a Biacore T100 instrument (GE Systems) and with CM5 sensor chips.
as §1

Experiment [8] concerns the target T2, Mouse FGFR2 IIIb D1-3. The experiment is described as above. As to the method: as §2, §1
In experiment [9] the target is T3, Rat FGFR2 IIIb D1-3. The experiment is described as above. As to the method: as §2, §1
The target of experiment [10] is T4, Cynomolgus monkey FGFR2 IIIb D1-3. The description is as above. As to the method: as §2, §1
Experiment [11] addresses T6, FGFR2 D2 (human).
T6 construct: trypsin was added to the complex before crystallisation; also called FGFR D2; human FGFR2 ECD fragment (domain 2)
T6 chain: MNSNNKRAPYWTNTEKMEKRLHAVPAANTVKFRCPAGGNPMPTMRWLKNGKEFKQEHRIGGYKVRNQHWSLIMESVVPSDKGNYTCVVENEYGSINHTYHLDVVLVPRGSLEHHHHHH
Briefly: complex purified by size exclusion chromatography and crystallised. Background: SEC sorts molecules by how far they enter the pores of the column.
Procedure: Peak fractions were analyzed by SDS-PAGE and LCMS.
Crystals were grown by sitting drop vapor diffusion. In detail, 0.1 μl of protein was mixed with 0.1 μl of reservoir solution which contains 0.1 M tri-sodium citrate dihydrate pH 5.0, 20% (w/v) PEG6000; and the drop was equilibrated against 45 μl of the same reservoir solution at 20° C.

T3 sequence (P21803 other isoform, or with tags, fused parts or gaps): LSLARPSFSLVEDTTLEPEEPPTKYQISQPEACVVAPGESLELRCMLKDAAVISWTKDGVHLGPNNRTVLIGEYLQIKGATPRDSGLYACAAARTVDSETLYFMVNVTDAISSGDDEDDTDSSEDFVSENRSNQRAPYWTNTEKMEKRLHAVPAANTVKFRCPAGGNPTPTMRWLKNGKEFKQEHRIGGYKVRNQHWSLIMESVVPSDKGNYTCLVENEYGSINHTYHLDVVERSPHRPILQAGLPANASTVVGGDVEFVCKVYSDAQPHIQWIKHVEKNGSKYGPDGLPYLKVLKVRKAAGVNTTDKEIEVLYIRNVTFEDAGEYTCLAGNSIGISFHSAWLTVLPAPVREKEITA

B1: mAb12433 (antibody, human IgG1, kappa, V domains shown)
VH: QVQLVQSGAEVKKPGESLKISCKGSGYSFTNYYIHWVRQMPGKGLEWMGAIYPDNSDTTYSPSFQGQVTISADKSISTAYLQWSSLKASDTAMYYCARGADIWGQGTLVTVSS
VL: DIQMTQSPSSLSASVGDRVTITCRASQDIDPYLSNWYQQKPGKAPKLLIYDASNLQSGVPSRFSGSGSGTDFTLTISSLQPEDFATYYCQQTTSHPYTFGQGTKVEIKR
notes: HuCAL human IgG1
On to B1, for which the Kd stood at 5.6 nM in [1]; 5.6 nM in experiment [2]; 2.2 nM in [3]; 3.7 nM in [4]; 1.7 nM in experiment [5]; 5.6 nM in experiment [7]. Moreover, the Kd in experiment [8] came out at 8 nM; in experiment [9], 12 nM; in experiment [10] it was 12 nM. Besides, the binding result in [6] is on record as “binds”.

B2: 12425 Fab (Fab, V domains shown)
VH: QVQLLESGGGLVQPGGSLRLSCAASGFTFSDYAMSWVRQAPGKGLEWVSVIEGDGSYTHYADSVKGRFTISRDNSKNTLYLQMNSLRAEDTAVYYCAREKTYSSAFDYWGQGTLVTVSS
VL: DIQMTQSPSSLSASVGDRVTITCRASQDISSDLNWYQQKPGKAPKLLIYDASNLQSGVPSRFSGSGSGTDFTLTISSLQPEDFAVYYCQQHYSPSHTFGQGTKVEIKR
As to B2, in [11], the binding result is reported as “binds”.

Usually Kd stands for the free concentration of one partner at which half of the binding sites on the other are occupied at equilibrium, for simple one-to-one binding.

The record behind these values is patent US20140308201A1 (Novartis, published 2014).
